Assay [1] addresses T1, human CD16B (NA-2 allele) on stably transfected HEK-293 cells (293/CD16B) (human, UniProt O75015 17-200).
T1 construct: whole, on cells
The experiment in a line: flow cytometry on 293/CD16B cells; scFv, anti-hexa His MAb 13/45/31-2, FITC goat anti-mouse IgG; MFI minus secondary reagents alone. As to the method: (§1) The mean fluorescence intensities obtained from flow cytometric analysis were corrected by subtracting the fluorescence values from cell stainings with the secondary reagents alone, and plotted in the diagram.
(§2) For flow cytometric analysis, the following cell lines were used: BW and BW/CD16A transfectants were cultured as described previously. […] The transient transfections were performed using the calcium phosphate method as described in Example 1 and were used for flow cytometric staining and analysis two days after transient transfection. Flow cytometric staining and analysis was performed as essentially described before.

For assay [2], the target named is T2, human CD16A-Fc^48R/158V fusion protein (human, UniProt P08637 17-208, limits assumed).
T2 construct: Secreted soluble fusion made in HEK-293 cells; also called CD16-Fc; CD16A Fc-fusion protein; not shown: Fc portion of human IgG1
The experiment in a line: SPR, BIAcore 2000, CD16A-Fc immobilized on CM5, koff/kon. As to the method: (§3) The affinity constants (KD values) of the scFv were determined by SPR using the BIAcore 2000 biosensor system (Amersham-Pharmacia). The CD16A-Fc fusion protein and BSA used as a negative control were immobilized on the carboxymethyldextran-coated sensor chip CM5 using conventional NHS/EDC chemistry for the amine coupling procedure (BIAcore). Purified scFvs were diluted in HBS-EP buffer (BIAcore, Uppsala, Sweden). Binding data was generated by passing varying concentrations of the scFv antibodies (100 nM, 200 nM, 400 nM, 800 nM and 1600 nM) over the immobilized antigen. […] All SPR measurements were performed at a constant flow rate of 20 μL/min in HBS-EP buffer at 25° C. Each injected sample (100 μl) was in contact with antigen for 5 minutes. The dissociation was followed for 30 minutes. After each cycle, the surface of the sensor chip was flushed with HBS-EP buffer. Signals from the control channel coated with BSA were automatically subtracted. Kinetic constants were calculated according to the 1/1 Langmuir binding model using the BIAevaluation version 3.0 software (BIAcore).

The target in assay [3] is T3, commercially available recombinant CD16B (Allele NA-2; BSA free; RD Systems) (UniProt O75015 17-200, limits assumed).
T3 construct: also called recombinant CD16B-Fc
The experiment in a line: ELISA on recombinant CD16B coated at 80 nM; scFv detected with anti-c-Myc-HRP (10 µg/ml). The protocol:
FIG. 3: ELISA on recombinant CD16A-Fc and CD16B. Recombinant CD16A-Fc and CD16B proteins were coated at 80 nM in 0.1 M NaHCO₃, pH 8.8. Wells were blocked with PBS, 2% skimmed milk. The binding of the scFv to the recombinant proteins and to gp34-Fc (negative control) was detected using an anti-c-Myc-HRP conjugate (10 μg/ml). […] Coated recombinant CD16B was directly detected by staining with an anti-His-HRP (1 μg/mL) and coating of the Fc-Fusion proteins was tested by an anti-human IgG-HRP conjugate (0.5 μg/mL). As HRP-substrate, 50 μL of TMB were used. After termination of the reaction with 50 μL 0.5 M H₂SO₄, absorbance was measured at 450 nm.
In order to generate further supporting data concerning the CD16A specificity of the scFvs, an ELISA was performed using the CD16A-Fc fusion protein (Example 1) and commercially available recombinant CD16B-Fc (Allele NA-2; BSA free; RD Systems). A gp34-Fc fusion protein was used as a negative control. The recombinant proteins were coated overnight at a concentration of 80 nM in 100 mM NaHCO₃ at pH 8.8.
Detection of scFv bound to the recombinant proteins was carried out by using an anti-c-myc-HRP conjugate (10 μg/ml). […] Binding to the recombinant CD16B was tested by directly staining with anti-His-HRP (1 μg/mL) and binding to the Fc-Fusion proteins was tested by an anti-human IgG-HRP conjugate (0.15 μg/mL).
(In an ELISA, binding on a coated surface is turned into a signal by an enzyme label.)

The next assay has as its target T4, NKp46-Fc (UniProt O76036 22-258, limits assumed).
T4 construct: Negative control protein; also called NKp46-Fc control protein; not shown: Fc part, not described
The experiment in a line: Western blot on NKp46-Fc. The protocol:
For further characterization all of the anti-CD16A scFv were tested for binding in Western Blot on recombinant CD16A-Fc and NKp46-Fc.
The proteins were transferred on a nitrocellulose membrane by electroblotting. After staining with Ponceau S, the membrane was cut into strips of 5 mm width. Each nitrocellulose strip was individually incubated with scFv (4 μg/ml) in PBS, 0.1% tween, 2% skimmed milk. Detection was carried out with the anti-Penta His HRP-conjugate (1 μg/mL) using diaminobenzidine (DAB) as a peroxidase substrate. […] As an additional positive control, a goat anti-human IgG HRP-conjugate (0.16 μg/mL) was used for detection of the Fc portion of the fusion proteins.
(In general: A western blot detects proteins with antibodies after separation by electrophoresis.)

Assay [4] addresses T2, human CD16A-Fc^48R/158V fusion protein. Nature of the assay: SPR, BIAcore 2000, CD16A-Fc immobilized on CM5, 1:1 Langmuir. As to the method: as §3
(In general: Surface plasmon resonance follows binding to a sensor surface in real time, without labels.)

In assay [5] the target is T5, native CD16B on human polymorphonuclear cells (neutrophilic granulocytes) (human, UniProt O75015 17-200).
T5 construct: whole, on cells; also called PMN; CD16B-positive granulocytes
The experiment in a line: flow cytometry on freshly isolated PMN; scFv, anti-(His)6 MAb, FITC goat anti-mouse IgG; MFI minus secondary reagents alone. The protocol: Polymorphonuclear cells (PMN) and natural killer (NK) cells were isolated from peripheral blood from a healthy donor and used for flow cytometric staining and analysis. […] All scFv were used at a concentration of 50 μg/mL and were detected with 10 μg/mL anti-(His)₆ followed by 15 μg/mL FITC-conjugated goat anti-mouse IgG. The mean fluorescence intensities obtained from flow cytometric analysis were corrected by subtracting the fluorescence values from cell stainings with the secondary reagents alone and were plotted in the diagram.
Enrichment of NK cells was performed by negative selection as described above.

Assay [6] concerns the target T6, NKp46 extracellular domain fused to zeta chain, on transiently transfected HEK-293 cells (293/NKp46) (human, UniProt O76036 22-258; P20963 31-164).
T6 construct: extracellular domain;domain: transmembrane and cytoplasmic domain; On the cell surface; also called NKp46-transfectants; pcDNA3-NKp46-zeta
The experiment in a line: flow cytometry on 293/NKp46 cells; scFv, anti-hexa His MAb 13/45/31-2, FITC goat anti-mouse IgG; MFI minus secondary reagents alone. As to the method: as §1, §2

For assay [7], the target named is T2, human CD16A-Fc^48R/158V fusion protein. The experiment in a line: SPR, steady state analysis (column Keq). As to the method: as §3
For assay [8] the target is unchanged. The experiment in a line: SPR, kinetic and steady state analysis. As to the method: as §3

T2 sequence (P08637 17-208 L66R/F176V limits assumed): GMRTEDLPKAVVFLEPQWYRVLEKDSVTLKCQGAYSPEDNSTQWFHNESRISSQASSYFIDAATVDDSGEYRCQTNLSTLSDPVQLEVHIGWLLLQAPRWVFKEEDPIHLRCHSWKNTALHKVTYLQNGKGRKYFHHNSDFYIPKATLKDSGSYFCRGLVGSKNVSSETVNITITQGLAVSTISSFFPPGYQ
T6 sequence (O76036 other isoform, or with tags, fused parts or gaps limits assumed): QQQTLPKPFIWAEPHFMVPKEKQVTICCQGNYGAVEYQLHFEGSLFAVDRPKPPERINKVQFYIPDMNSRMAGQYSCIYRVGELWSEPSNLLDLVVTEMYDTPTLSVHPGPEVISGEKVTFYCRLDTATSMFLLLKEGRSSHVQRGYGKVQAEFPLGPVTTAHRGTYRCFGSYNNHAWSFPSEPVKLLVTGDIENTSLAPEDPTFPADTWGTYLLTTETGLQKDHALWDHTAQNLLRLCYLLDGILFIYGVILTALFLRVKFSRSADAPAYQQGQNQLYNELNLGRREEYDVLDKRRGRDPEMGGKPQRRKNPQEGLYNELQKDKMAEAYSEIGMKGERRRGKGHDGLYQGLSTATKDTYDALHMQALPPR
T3 sequence (O75015 17-200 N65S limits assumed): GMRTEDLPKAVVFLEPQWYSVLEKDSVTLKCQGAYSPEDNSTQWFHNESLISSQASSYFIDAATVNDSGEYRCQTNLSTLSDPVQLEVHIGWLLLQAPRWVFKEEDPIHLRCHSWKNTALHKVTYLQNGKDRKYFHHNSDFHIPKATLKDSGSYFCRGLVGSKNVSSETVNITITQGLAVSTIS
T1 sequence (O75015 17-200 N65S): as the sequence (O75015 17-200 N65S limits assumed) above
T5 sequence (O75015 17-200): as the sequence (O75015 17-200 N65S limits assumed) above, with S49N counted along it
T4 sequence (O76036 22-258 limits assumed): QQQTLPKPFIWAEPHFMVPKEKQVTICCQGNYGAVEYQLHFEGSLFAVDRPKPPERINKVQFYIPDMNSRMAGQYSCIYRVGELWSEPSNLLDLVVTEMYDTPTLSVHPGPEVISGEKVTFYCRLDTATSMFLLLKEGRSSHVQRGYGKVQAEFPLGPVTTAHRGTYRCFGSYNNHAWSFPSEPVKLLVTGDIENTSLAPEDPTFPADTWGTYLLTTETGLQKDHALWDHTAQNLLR

B1: affinity matured anti-CD16A scFv 4-LS14 (scFv)
scFv: EVQLVQSGAEVKKPGESLKVSCKASGYTFTSYYMHWVRQAPGQGLEWMGIINPSGGSTSYAQKFQGRVTMTRDTSTSTVYMELSSLRSEDTAVYYCARGSAYYYDFADYWGQGTLVTVSSGSASAPTLKLEEGEFSEARVSYELTQPPSVSVTPGQTATITCGANDIGKRNVHWYQQRPGQSPVLVIYQDNKRPSGIPERFSGSNSGNTATLTISGTQAMDEADYYCQVWDNYSVLFGGGTKLTVLGQPKAAPSVTLFPPSAAAGSEQKLISEEDLNSHHHHHH
notes: IMAC-purified from pSKK2
As for B1, the binding result in assay [1] was “no binding (tested: 50 µg/mL)”; in [3] it was “no binding (tested: not given)”; in the assay with NKp46-Fc, “no binding (tested: 4 µg/ml)”; in [5], “no binding (tested: 50 µg/mL)”; in assay [6], “no binding (tested: 50 µg/mL)”. Besides, binding in [2] was put at a Kd of 109 nM. Also, in assay [4], the off-rate constant (koff) (usually the first-order rate constant of dissociation) was found to be 0.00557 s⁻¹. In [4], the kon (usually the second-order rate constant of association) came out at 50900 M⁻¹ s⁻¹.

B2: affinity matured anti-CD16A scFv 3-LS49 (scFv)
scFv: EVQLVQSGAEVKKPGESLKVSCKASGYTFTSYYMHWVRQAPGQGLEWMGIINPSGGSTSYAQKFQGRVTMTRDTSTSTVYMELSSLRSEDTAVYYCARGSAYYYDFADYWGQGTLVTVSSGSASAPTLKLEEGEFSEARVQPVLTQPLSVSVAPGQTARITCGGNNIGSKNVHWYQQKPGQAPVLVIYRDSSRPSGIPERLSGSNSGDTATLTISRAQAGDEADYYCQVWDDYIVVFGGGTKLTVLGQPKAAPPVTLFPPSAAAGSEQKLISEEDLNSHHHHHH
notes: IMAC-purified from pSKK2
Take B2: the binding result in assay [1] is listed as “no binding (tested: 50 µg/mL)”; in [3] it was “no binding (tested: not given)”; with NKp46-Fc it was “no binding (tested: 4 µg/ml)”; in assay [5] it was “no binding (tested: 50 µg/mL)”; in assay [6], “no binding (tested: 50 µg/mL)”. The Kd (in general, the equilibrium constant for the complex coming apart) in assay [2] turned out to be 137 nM. The molecule also yielded a koff in [4] of 0.00401 s⁻¹. Besides, in assay [4], the kon is 29300 M⁻¹ s⁻¹.

B3: affinity matured anti-CD16A scFv 3-LB6 (scFv)
scFv: EVQLVQSGAEVKKPGESLKVSCKASGYTFTSYYMHWVRQAPGQGLEWMGIINPSGGSTSYAQKFQGRVTMTRDTSTSTVYMELSSLRSEDTAVYYCARGSAYYYDFADYWGQGTLVTVSSGSASAPTLKLEEGEFSEARVQAVLTQPPSVSVAPGQTARIPCEGNNIGSKNVHWYRQKPGQVPVLVMYDDSDRPSGIPERFSGSNSGNTATLTISGTQAMDEADYYCQVWDNYSVLFGGGTKLTVLGQPKAAPSVTLFPPSAAAGSEQKLISEEDLNSHHHHHH
notes: IMAC-purified from pSKK2
Take B3: the binding result in assay [1] is recorded as “no binding (tested: 50 µg/mL)”; in [3], “no binding (tested: not given)”; with NKp46-Fc, “no binding (tested: 4 µg/ml)”; in assay [5], “no binding (tested: 50 µg/mL)”; in assay [6], “no binding (tested: 50 µg/mL)”. For the same molecule, the results for the Kd in [2] and in assay [7] were 119 nM and 106 nM, respectively. In [4], this molecule returned a koff of 0.00652 s⁻¹. Besides, the kon in [4] is 54800 M⁻¹ s⁻¹. The “fold improvement of affinity over parental clone 50NI” value in assay [8] is more than 20 fold.

B4: affinity matured anti-CD16A scFv 3-LB3 (scFv)
scFv: EVQLVQSGAEVKKPGESLKVSCKASGYTFTSYYMHWVRQAPGQGLEWMGIINPSGGSTSYAQKFQGRVTMTRDTSTSTVYMELSSLRSEDTAVYYCARGSAYYYDFADYWGQGTLVTVSSGSASAPTLKLEEGEFSEARVSYELTQPLSESVAQGQTARITCGGNNIESRNVHWYQQKPGQAPVLVIYRDNNRPSGIPERFSGSNSGNMATLTISRAQAGDAADYYCQVWDNYTVLFGGGTKLTVLGQPKAAPSVTLFPPSAAAGSEQKLISEEDLNSHHHHHH
notes: IMAC-purified from pSKK2
B4: the binding result was “no binding (tested: 50 µg/mL)” in [1]; “no binding (tested: not given)” in [3]; “no binding (tested: 4 µg/ml)” with NKp46-Fc; “no binding (tested: 50 µg/mL)” in assay [5]; “no binding (tested: 50 µg/mL)” in [6]. For the same molecule, the Kd in [2] was determined as 138 nM. Further, the koff in [4] was determined as 0.00297 s⁻¹. In addition, the kon in assay [4] was found to be 21600 M⁻¹ s⁻¹.

B5: affinity matured anti-CD16A scFv 3-LB5 (scFv)
scFv: EVQLVQSGAEVKKPGESLKVSCKASGYTFTSYYMHWVRQAPGQGLEWMGIINPSGGSTSYAQKFQGRVTMTRDTSTSTVYMELSSLRSEDTAVYYCARGSAYYYDFADYWGQGTLVTVSSGSASAPTLKLEEGEFSEARVSYELTQPPSVAVAPGKTARITCGGNNIGSKNVHWYQQKPGQAPVLVIYRDSNRPSGIPERFSGSNSGNTATLTISRAQAGDEADFYCQVWDNYIVLFGGGTKLTVLGQPKAAPSVTLFPPSAAAGSEQKLISEEDLNSHHHHHH
notes: IMAC-purified from pSKK2; oligomeric state not analysed
For the molecule B5, the binding result in assay [1] is recorded as “no binding (tested: 50 µg/mL)”; in assay [3], “no binding (tested: not given)”; in the assay with NKp46-Fc it was “no binding (tested: 4 µg/ml)”; in assay [5], “no binding (tested: 50 µg/mL)”; in assay [6] it was “no binding (tested: 50 µg/mL)”. In assay [2], this molecule gave a Kd of 40.5 nM. Moreover, the off-rate (koff) in [4] worked out at 0.00297 s⁻¹. Moreover, in assay [4], the kon worked out at 73300 M⁻¹ s⁻¹.

The record behind these values is patent publication US20090214574A1 (AFFIMED, published 2009).
